Molecular target: T1, 重组人PLVAP/PV-1蛋白 (human, UniProt Q9BX97 49-442, limits assumed)
T1 construct: Bought reagent (Abcam); Coupled to a CM5 chip in the SPR assay; also called 质膜膜泡关联蛋白
T1 sequence (looked up): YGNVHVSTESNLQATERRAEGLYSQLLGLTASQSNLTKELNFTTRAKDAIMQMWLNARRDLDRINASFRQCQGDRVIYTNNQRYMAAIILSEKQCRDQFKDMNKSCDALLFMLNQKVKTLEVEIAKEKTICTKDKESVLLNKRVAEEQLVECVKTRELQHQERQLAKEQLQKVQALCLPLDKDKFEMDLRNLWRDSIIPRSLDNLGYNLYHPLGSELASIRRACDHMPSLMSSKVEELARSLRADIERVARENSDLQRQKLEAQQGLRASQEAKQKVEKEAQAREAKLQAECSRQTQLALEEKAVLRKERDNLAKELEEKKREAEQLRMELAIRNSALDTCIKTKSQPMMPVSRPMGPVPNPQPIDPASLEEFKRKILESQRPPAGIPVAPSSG
Experiment: SPR, Biacore T200, PV-1 coupled to CM5 chip, antibody as analyte, 25℃, 1:1 fit

| Binder | 倍数 (fold against HLPV-P00) [fold] |
| --- | --- |
| HLPV-P01 (antibody, IgG1, V domains shown, Full IgG1/kappa antibody; also called 中间抗体; not shown: human IgG1 heavy chain constant region, UniProtKB P01857.1; human Kappa light chain constant region, UniProtKB P01834.2) VH: QVQLVQSGAEVKKPGASVKVSCKASGYTFTDYYMYWVRQAPGQGLEWIGEINPTQGDVNFNEMFKSRVTMTVDTSTSTAYMELSSLRSEDTAVYYCTSIFYWGQGTLVTVSS VL: DIVMTQSPSSLSASVGDRVTITCKASQDIKYQLSWYQQKPGKAPKTLIYYATDLADGVPSRFSGSGSGQEFTLTISSLQPEDFATYYCVQHDDRPFTFGQGTKLEIK | 7.31 |
| HLPV-P00 (antibody, IgG1, V domains shown, Full IgG1/kappa antibody, VH fused at its C-terminus to the IgG1 constant region, VL to the kappa constant region; expressed in ExpiCHO-S; also called 原始抗体; not shown: human IgG1 heavy chain constant region, UniProtKB P01857.1; human Kappa light chain constant region, UniProtKB P01834.2) VH: QVQLVQSGAEVKKPGASVKVSCKASGYTFTDYYMYWVRQAPGQGLEWIGEINPTQGDVNFNEMFKSRVTMTVDTSTSTAYMELSSLRSEDTAVYYCTSIHYWGQGTLVTVSS VL: DIVMTQSPSSLSASVGDRVTITCKASQDIKTQLSWYQQKPGKAPKTLIYYATDLADGVPSRFSGSGSGQEFTLTISSLQPEDFATYYCLQHDDRPFTFGQGTKLEIK | 1 |
| HLPV-P02 (antibody, IgG1, V domains shown, Full IgG1/kappa antibody; not shown: human IgG1 heavy chain constant region, UniProtKB P01857.1; human Kappa light chain constant region, UniProtKB P01834.2) VH: QVQLVQSGAEVKKPGASVKVSCKASGYVFTDYYMYWVRQAPGQGLEWIGEINPTTGDVNFNEMFKSRVTMTVDTSTSTAYMELSSLRSEDTAVYYCTSIFYWGQGTLVTVSS VL: DIVMTQSPSSLSASVGDRVTITCKASQDIKYQLSWYQQKPGKAPKTLIYYSTDLADGVPSRFSGSGSGQEFTLTISSLQPEDFATYYCVQHDDRPFTFGQGTKLEIK | 6.29 |
| HLPV-P03 (antibody, IgG1, V domains shown, Full IgG1/kappa antibody; not shown: human IgG1 heavy chain constant region, UniProtKB P01857.1; human Kappa light chain constant region, UniProtKB P01834.2) VH: QVQLVQSGAEVKKPGASVKVSCKASGYTFEDYYMYWVRQAPGQGLEWIGEVNPTQGDVNFNEMFKSRVTMTVDTSTSTAYMELSSLRSEDTAVYYCTSIFYWGQGTLVTVSS VL: DIVMTQSPSSLSASVGDRVTITCKASQDIKYQLSWYQQKPGKAPKTLIYYATFLADGVPSRFSGSGSGQEFTLTISSLQPEDFATYYCVQHDDRPFTFGQGTKLEIK | 13.4 |
| HLPV-P04 (antibody, IgG1, V domains shown, Full IgG1/kappa antibody; not shown: human IgG1 heavy chain constant region, UniProtKB P01857.1; human Kappa light chain constant region, UniProtKB P01834.2) VH: QVQLVQSGAEVKKPGASVKVSCKASGYTFRDYYMYWVRQAPGQGLEWIGEINPTTGDVNFNEMFKSRVTMTVDTSTSTAYMELSSLRSEDTAVYYCTSIFYWGQGTLVTVSS VL: DIVMTQSPSSLSASVGDRVTITCKASQDIKYQLSWYQQKPGKAPKTLIYYATSLADGVPSRFSGSGSGQEFTLTISSLQPEDFATYYCVQHDDRPFTFGQGTKLEIK | 14 |
| HLPV-P05 (antibody, IgG1, V domains shown, Full IgG1/kappa antibody; not shown: human IgG1 heavy chain constant region, UniProtKB P01857.1; human Kappa light chain constant region, UniProtKB P01834.2) VH: QVQLVQSGAEVKKPGASVKVSCKASGYTFTDYYMYWVRQAPGQGLEWIGEINPTQGDVNFNEMFKSRVTMTVDTSTSTAYMELSSLRSEDTAVYYCTSIFYWGQGTLVTVSS VL: DIVMTQSPSSLSASVGDRVTITCKASQDIKYQLTWYQQKPGKAPKTLIYYATDLADGVPSRFSGSGSGQEFTLTISSLQPEDFATYYCVQHDNRPFTFGQGTKLEIK | 25.8 |
| HLPV-P06 (antibody, IgG1, V domains shown, Full IgG1/kappa antibody; not shown: human IgG1 heavy chain constant region, UniProtKB P01857.1; human Kappa light chain constant region, UniProtKB P01834.2) VH: QVQLVQSGAEVKKPGASVKVSCKASGYTFTAYYMYWVRQAPGQGLEWIGEINPTSGDVNFNEMFKSRVTMTVDTSTSTAYMELSSLRSEDTAVYYCTSIFYWGQGTLVTVSS VL: DIVMTQSPSSLSASVGDRVTITCKASQDIKYQLSWYQQKPGKAPKTLIYYATFLADGVPSRFSGSGSGQEFTLTISSLQPEDFATYYCVQHDDRPFTFGQGTKLEIK | 8.95 |
| HLPV-P07 (antibody, IgG1, V domains shown, Full IgG1/kappa antibody; not shown: human IgG1 heavy chain constant region, UniProtKB P01857.1; human Kappa light chain constant region, UniProtKB P01834.2) VH: QVQLVQSGAEVKKPGASVKVSCKASGYTFEDYYMYWVRQAPGQGLEWIGEINPTQGDVRFNEMFKSRVTMTVDTSTSTAYMELSSLRSEDTAVYYCTSIFYWGQGTLVTVSS VL: DIVMTQSPSSLSASVGDRVTITCKASQDIKYQLSWYQQKPGKAPKTLIYYATYLADGVPSRFSGSGSGQEFTLTISSLQPEDFATYYCVQHDDRPFTFGQGTKLEIK | 11.4 |
| HLPV-P08 (antibody, IgG1, V domains shown, Full IgG1/kappa antibody; not shown: human IgG1 heavy chain constant region, UniProtKB P01857.1; human Kappa light chain constant region, UniProtKB P01834.2) VH: QVQLVQSGAEVKKPGASVKVSCKASGYTFTDYYMYWVRQAPGQGLEWIGEINPTQGDVNFNEMFKSRVTMTVDTSTSTAYMELSSLRSEDTAVYYCTTIFYWGQGTLVTVSS VL: DIVMTQSPSSLSASVGDRVTITCKASQDIKYQLTWYQQKPGKAPKTLIYYATDLADGVPSRFSGSGSGQEFTLTISSLQPEDFATYYCVSHDDRPFTFGQGTKLEIK | 38.4 |
| HLPV-P09 (antibody, IgG1, V domains shown, Full IgG1/kappa antibody; not shown: human IgG1 heavy chain constant region, UniProtKB P01857.1; human Kappa light chain constant region, UniProtKB P01834.2) VH: QVQLVQSGAEVKKPGASVKVSCKASGYTFTDYYMYWVRQAPGQGLEWIGEINPTQGDVNFNEMFKSRVTMTVDTSTSTAYMELSSLRSEDTAVYYCTTIFYWGQGTLVTVSS VL: DIVMTQSPSSLSASVGDRVTITCKASQDIGYQLSWYQQKPGKAPKTLIYYATDLADGVPSRFSGSGSGQEFTLTISSLQPEDFATYYCVQHYDRPFTFGQGTKLEIK | 36.8 |
| HLPV-P10 (antibody, IgG1, V domains shown, Full IgG1/kappa antibody; not shown: human IgG1 heavy chain constant region, UniProtKB P01857.1; human Kappa light chain constant region, UniProtKB P01834.2) VH: QVQLVQSGAEVKKPGASVKVSCKASGYTFTDYYMYWVRQAPGQGLEWIGEINPTQGDVNFNEMFKSRVTMTVDTSTSTAYMELSSLRSEDTAVYYCTSIFYWGQGTLVTVSS VL: DIVMTQSPSSLSASVGDRVTITCKASQDIKYQLTWYQQKPGKAPKTLIYYATDLADGVPSRFSGSGSGQEFTLTISSLQPEDFATYYCVQHSDRPFTFGQGTKLEIK | 23.4 |
| HLPV-P11 (antibody, IgG1, V domains shown, Full IgG1/kappa antibody; not shown: human IgG1 heavy chain constant region, UniProtKB P01857.1; human Kappa light chain constant region, UniProtKB P01834.2) VH: QVQLVQSGAEVKKPGASVKVSCKASGYTFTDYYMYWVRQAPGQGLEWIGEINPTQGDVNFNEMFKSRVTMTVDTSTSTAYMELSSLRSEDTAVYYCTTIFYWGQGTLVTVSS VL: DIVMTQSPSSLSASVGDRVTITCKASQDIKYQLSWYQQKPGKAPKTLIYYATDLADGVPSRFSGSGSGQEFTLTISSLQPEDFATYYCVQHDDRPFSFGQGTKLEIK | 40.5 |
| HLPV-P12 (antibody, IgG1, V domains shown, Full IgG1/kappa antibody; not shown: human IgG1 heavy chain constant region, UniProtKB P01857.1; human Kappa light chain constant region, UniProtKB P01834.2) VH: QVQLVQSGAEVKKPGASVKVSCKASGYTFTDYYMYWVRQAPGQGLEWIGEINPSQGDVNFNEMFKSRVTMTVDTSTSTAYMELSSLRSEDTAVYYCTSIFYWGQGTLVTVSS VL: DIVMTQSPSSLSASVGDRVTITCKASQDIKYQLSWYQQKPGKAPKTLIYYATDRADGVPSRFSGSGSGQEFTLTISSLQPEDFATYYCVQHDDRPFTFGQGTKLEIK | 4.1 |
| HLPV-P13 (antibody, IgG1, V domains shown, Full IgG1/kappa antibody; not shown: human IgG1 heavy chain constant region, UniProtKB P01857.1; human Kappa light chain constant region, UniProtKB P01834.2) VH: QVQLVQSGAEVKKPGASVKVSCKASGYVFTDYYMYWVRQAPGQGLEWIGEINPTSGDVNFNEMFKSRVTMTVDTSTSTAYMELSSLRSEDTAVYYCTSIFYWGQGTLVTVSS VL: DIVMTQSPSSLSASVGDRVTITCKASQDIKYQLSWYQQKPGKAPKTLIYYAGDLADGVPSRFSGSGSGQEFTLTISSLQPEDFATYYCVQHDDRPFTFGQGTKLEIK | 9.29 |
| HLPV-P14 (antibody, IgG1, V domains shown, Full IgG1/kappa antibody; not shown: human IgG1 heavy chain constant region, UniProtKB P01857.1; human Kappa light chain constant region, UniProtKB P01834.2) VH: QVQLVQSGAEVKKPGASVKVSCKASGYTFTNYYMYWVRQAPGQGLEWIGEINPTSGDVNFNEMFKSRVTMTVDTSTSTAYMELSSLRSEDTAVYYCTSIFYWGQGTLVTVSS VL: DIVMTQSPSSLSASVGDRVTITCKASQDIKYQLSWYQQKPGKAPKTLIYYAGDLADGVPSRFSGSGSGQEFTLTISSLQPEDFATYYCVQHDDRPFTFGQGTKLEIK | 8.58 |
